Target: high-affinity mouse IL2 receptor on CTLL-2 cells (mouse (endogenous in CTLL-2))

CTLL-2 cell proliferation (WST-1 absorbance), EC50: 0.6 ng/mL
Substance: aldesleukin (FDA-approved recombinant human IL2) (from UniProt P60568 21-133) (ligand)

From PMC9625839
